Measurements: article PMC11091121, “The structural basis for 2′−5′/3′−5′-cGAMP synthesis by cGAS”

Legend:
QN-mcGAScat = QN-mcGAScat (mouse, UniProt Q8C6L5 147-507, E211Q;D213N); experiment: crystal structure; ATP, GTP, Mg2+; FA: 5 nM FAM-dsDNA, as previously reported (reaction buffer likely 25 mM Tris-acetate pH 7.4, 125 mM KAc, 5 mM MgAc2, 1 mM TCEP, 5% glycerol, 25 C); crystals: 0.2 M ammonium acetate, 32% MPD, 0.1 M Bis-Tris pH 6.5, 4 C; conditions: protein: recombinant; tags: none left (N-terminal 6xHis-MBP removed by TEV); chain copies: 2; blunt; self-complementary, 2 copies of the strand
QN-mcGAScat, sequence (Q8C6L5 147-507 E211Q/D213N): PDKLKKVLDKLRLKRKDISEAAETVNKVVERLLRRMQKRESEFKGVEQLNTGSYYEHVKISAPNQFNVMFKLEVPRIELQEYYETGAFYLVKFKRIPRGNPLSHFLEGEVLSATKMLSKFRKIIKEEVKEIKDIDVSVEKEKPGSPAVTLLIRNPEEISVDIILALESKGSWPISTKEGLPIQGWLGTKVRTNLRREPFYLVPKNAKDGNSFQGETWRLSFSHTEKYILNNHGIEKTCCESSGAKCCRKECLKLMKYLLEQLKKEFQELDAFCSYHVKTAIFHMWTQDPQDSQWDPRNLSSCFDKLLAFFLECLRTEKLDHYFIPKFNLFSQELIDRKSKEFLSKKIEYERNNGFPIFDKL

WT-mcGAScat = WT-mcGAScat (mouse, UniProt Q8C6L5 147-507); experiment: crystal structure; 2'-dATP; FA: 5 nM FAM-dsDNA, as previously reported (reaction buffer likely 25 mM Tris-acetate pH 7.4, 125 mM KAc, 5 mM MgAc2, 1 mM TCEP, 5% glycerol, 25 C); crystals: 0.2 M ammonium acetate, 32% MPD, 0.1 M Bis-Tris pH 6.5, 4 C; conditions: protein: recombinant; tags: none left (N-terminal 6xHis-MBP removed by TEV); chain copies: 2; blunt; self-complementary, 2 copies of the strand
WT-mcGAScat, sequence (Q8C6L5 147-507): as the sequence (Q8C6L5 147-507 E211Q/D213N) above, with Q65E, N67D counted along it

B1: 18-bp palindromic dsDNA (dsDNA)
DNA 1: ATCTGTACATGTACAGAT
DNA 2: ATCTGTACATGTACAGAT
B1: binds (QN-mcGAScat); binds (WT-mcGAScat).
